The text below walks through data of publication PMC3949746.

For orientation: stoichiometry N means the number of molecules, sites or subunits per partner or assembly.

In assay [1] the target is ribulose-1,5-bisphosphate carboxylase/oxygenase (RuBisCO) large subunit of Serratia sp. ISTD04 (Serratia sp. ISTD04 (endogenous)). The assay is described as follows: SEC; native RuBisCO purified from Serratia sp. ISTD04, Superdex 200 FPLC gel filtration in buffer A (200 mM Tris-Cl, 10 mM MgCl2, 132 mM KHCO3, 10 mM DTT, ATP, pH 7.8), 0.5 ml/min, 4°C; subunits of the eluted enzyme shown by SDS-PAGE (12%). (In general: SEC sorts molecules by how far they enter the pores of the column.)

Assay [2] has as its target ribulose-1,5-bisphosphate carboxylase/oxygenase (RuBisCO) small subunit of Serratia sp. ISTD04 (Serratia sp. ISTD04 (endogenous)). The assay is described as above.

“ribulose-1,5-bisphosphate carboxylase/oxygenase (RuBisCO) large subunit of Serratia sp. ISTD04 (natural protein)”: in assay [1], the stoichiometry N worked out at 8.

As to “ribulose-1,5-bisphosphate carboxylase/oxygenase (RuBisCO) small subunit of Serratia sp. ISTD04 (natural protein)”, the stoichiometry N in assay [2] was determined as 8.
